Measurements from patent US20260042827A1, “ANTI-WT1 ANTIGEN-BINDING PROTEINS AND USES THEREOF” (UNIVERSITY HEALTH NETWORK, priority 2022, published 2026).

Tested on: WT1 peptide presented by HLA-DP molecules on K562 transfectants
Assay: Flow cytometric staining of K562 transfectants with WT1-specific mAb
Format: cell-based, human
Settings: flow cytometry; for recognition of naturally processed WT1 peptide on K562/DP cells: K562/DP2 and K562/DP4, endogenous or ectopic WT1; for recognition of exogenously-pulsed WT1 peptide presented by DP molecules: K562 transfectants pulsed with WT1 peptide
Experimental: FIGS. 5A-5S present data showing that WT1-specific mAbs bind to WTT peptide presented by HLA-DP molecules. FIGS. 5A-5B show binding of B7/21 (an anti-HLA-DP mAb) or WT1-specific mAbs to immobilized WT1 peptide or DP4/WT1 monomers as assessed by ELISA. m Abs were added to ELISA plate coated with WT1330-348 or CLIP (control) (FIG. 5A). mAbs were added to ELISA plate coated with DP4/WT1330-348 monomers or DP4/CLIP monomers (control) (FIG. 5B). The data shown represent the mean±SD of experiments performed in triplicates. Results are representative of two independent experiments. ns, not significant, *p<0.05, **p<0.01, ***p<0.001, ****p<0.0001 by two-way ANOVA with Bonferroni correction. […] Interaction strength was measured by a BLI binding assay. FIGS. 5F-5K show the indicated K562 transfectants pulsed with WT1330-348 or CLIP (control) and stained with WT1-specific mAb, 5H2, followed by PE-conjugated anti-mouse secondary Ab and flow cytometric analysis. FIGS. 5L-5S show the indicated K562 transfectants stained with WT1-specific mAb, 5H2, or isotype control mAb, followed by PE-conjugated anti-mouse secondary Ab and flow cytometric analysis.
For surface staining, cells were pelleted and resuspended in a mAb master mix diluted in a PBS/2% FBS buffer. Cells were incubated at 4° C. for 15 minutes and washed prior to analysis. Monoclonal antibodies recognizing the following targets were used for surface staining: CD4 (300505, 1:40, BioLegend), CD8 (301007, 1:100, BioLegend), pan HLA class II (361703, 1:100, BioLegend), NGFR (345131, 1:40, BioLegend), CD25 (301007, 1:100, BioLegend), CD62L (304805, 1:25, BioLegend), CD45RA (304111, 1:10, BioLegend), PD-1 (329905, 1:40, BioLegend), Tim-3 (345007, 1:20, BioLegend). Mouse isotype controls were purchased from BioLegend. Biotinylated Protein-L was purchased from GenScript. For intracellular cytokine staining, TCR or CAR-T cells were stimulated with indicated target cells at an E:T ratio of 1:1. Brefeldin A (BioLegend) was added to the culture media after 2 hours, and the cells were further cultured for 4 hours. Following the surface marker staining, the cells were fixed and permeabilized using the Cytofix/Cytoperm Kit (BD Biosciences) and stained with FITC-anti-IL-2 (500305, 1:20, BioLegend), APC-anti-TNF-α (502913, 1:100, BioLegend), and PE-Cy7-anti-IFN-7 (506517, 1:200, BioLegend). The frequency of cytokine-producing cells within the CD8^+ or CD4^+ T cell population was determined by flow cytometric analysis. For intracellular WT1 staining, cells were fixed and permeabilized using the Cytofix/Cytoperm Kit (BD Biosciences) and stained with mouse anti-WT1 mAb (NB110-60011SS, 1:200, Novus Biologicals), followed by BV421-anti-mouse IgG (405317, 1:20, BioLegend). […]

B1: 5H2: mouse WT1-specific mAb raised against WT1330-348 peptide; VH SEQ ID NO: 37, VL SEQ ID NO: 38 (antibody, V domains shown)
VH: EVQLQQSGAELVRPGALVKLSCKASGFNIKDYYMHWVKQRPEQGLEWIGWIDPENGNTIYDPKFQGKASITADTSSNTAYLQLSSLTSGDTAVYYCTRDGYYMVFAYWGQGTLVTVSA
VL: DIQMTQSPSSLSASLGGKVTITCKASQDINKCIAWYKHKPGKGPRLLIHYTSILQPGIPSRFSGSGSGRDYSFSISNLEPEDIATYYCLQYDNLYTFGGGTKLEIK
modifications: 5H2 - VH; 5H2 - VL
  recognition of naturally processed WT1 peptide on K562/DP cells: can bind to K562/DP2 and K562/DP4 cells which express endogenous WT1
  recognition of exogenously-pulsed WT1 peptide presented by DP molecules: can recognize exogenously-pulsed WT1330-348 presented by multiple DP molecules such as DP2 and DP5 in addition to DP4
Listed as WT1-specific mAb
  recognition of naturally processed WT1 peptide on K562/DP cells: can recognize naturally processed WT1 peptide presented by HLA-DP2
  recognition of exogenously-pulsed WT1 peptide presented by DP molecules: can recognize exogenously-pulsed WT1328-348 peptide presented by different HLA-DP molecules
